In patent US20250313612A1 (Adimab, published 2025):

How the values were obtained:
[1] = biological target: RSV F protein of recombinant mKate-RSV, subtype A (strain A2) (Respiratory syncytial virus subtype A …, UniProt P03420 26-574); assay: cell-based or functional assay
[2] = biological target: RSV F protein of recombinant mKate-RSV, subtype B (18537) (Respiratory syncytial virus subtype B …, UniProt P13843 26-574); assay: cell-based or functional assay
[3] = biological target: T1, RSV F ectodomain stabilized in the postfusion conformation (F ΔFP), subtype B (Respiratory syncytial virus subtype B, UniProt P13843 26-109; P13843 147-524); assay: BLI, IgG on AHQ sensor, 100 nM antigen
T1 construct: extracellular domain; trimer; also called Postfusion subtype B; postF subtype B

[4] = biological target: T2, RSV F ectodomain stabilized in the postfusion conformation (F ΔFP), subtype A (Respiratory syncytial virus subtype A, UniProt P03420 26-109; P03420 147-524); assay: BLI, IgG on AHQ sensor, 100 nM antigen
T2 construct: extracellular domain; trimer; furin-cleaved; also called Postfusion subtype A

Binder | Neut IC50 subtype A [1] | Neut IC50 subtype B [2] | Kd [3] | Kd [4]
ADI-14483 (antibody, V domains shown, full-length IgG (yeast-expressed); also called Antibody Number 44; Ab# 44) VH: QVQLVQSGGRLVKPGGSLRLSCGMSGFGFSSYRMNWVRQAPGKGLEWISSISASSSYTDYANSVKGRFTISRDGANLFLQMNSLRVEDTAVYYCARDWGGHSIFGAVQDLWGQGTLVTVSS VL: QSVLTQPPSVSGAPGQRVTISCSGSSSNIGAGYDVHWYQQLPGTAPKLLIYGNTNRPSGVPDRFSGSKSGTSASLAITGLQAEDEADYYCQSYDRSLSQVFGAGTKVTVL | 0.031 µg/mL | 0.03 µg/mL | 20 nM | –
ADI-14479 (antibody, V domains shown) VH: QVQLVQSGSEVKQPGASVKVSCKASGYTFSAYHLHWVRQAPGQGLQWLGRINPNSGATSVAHNFQGRVTLTTDTSISTAYMELSSLTSDDSAVYYCARTMWRWLVEGGFENWGQGTLVTVSS VL: not shown | 4.09 µg/mL | 22.7 µg/mL | – | –
ADI-14482 (antibody, V domains shown) VH: QVQLQQWGAGLVKPSETLSLTCAVSGGSFRGYQWNWFRQPPGKGLEWIGEINHGEYTHYNASLKSRVSLSIDTSKNQFSLNLTSVTAADTAMYFCARASSGTYNFEYWFDPWGQGTLVTVSS VL: SYVLTQPPSVSVAPGKTAWLTCGGNNIGNKRVHWYQQKPGQAPVLVVYDDYGRPSGTSERVSGSNSGNTATLTISRVEAGDEAEYYCQVWDDPSDHAVFGGGTQLTVL | 0.024 µg/mL | 0.031 µg/mL | – | –
ADI-14462 (antibody, V domains shown) VH: QVQLVQSGGGVVQPGGSLRLSCAAYGLTFRAYGMHWVRQAPGKGLEWVAVSWYDGTNEVYADSVKGRFRISRDDSRSTLYLQMNSLRGEDTAVYYCATERMWEENSSSFGWWGRGTLVTVSS VL: QAVLTQPASVSGSPGQSITISCTGSSSDVGGSNFVSWYQQHPGKAPKLMVYDVNHRPSGISNRFSGSKSGNTASLTISGLQAEDEADYYCTSYTSRSSYVFGSGTKVTVL | 2.71 µg/mL | 2.63 µg/mL | – | –
ADI-14480 (antibody, V domains shown) VH: QVQLVQSGAEVKKPGSSMSISCRASGGSFNNQAIHWIRQAPGEGLEWMGNIIPNFGSQNYAPEFVGRVSFNADASAGTAYMDLSDLTSQDTAVYYCATAGWFGELVRFDSWGQGTLVTVSS VL: DIVMTQSPATLSVSPGGRATLSCRASETITTNLAWYQQKPGQAPRLLIYGASTRATGIPARFSGSGSGTEFTLTINSLQSEDFAVYYCQQYNNWPPLTFGGGTKLEIK | > 10 µg/mL | 2.76 µg/mL | – | –
ADI-14465 (antibody, V domains shown) VH: QVQLLESGAGLLKPSETLSLTCSLSGGSFRDFYWAWIRQAPGRGLEWIGDINDGGNTNHSPSLKSRAILSIDASKRQFSLRLTSVTAADTAVYYCARQRLEHTASGYYMDVWGNGTTVTVSS VL: QSVLTQPPSVSVDPGETATITCGGANIGSKNVYWYQQRPGQAPVLVVYDDIDRPAGIPDRFTDSSSGNTVTLTIYSVEAVDEADYFCQVWDNSSDQPVFGGGTKLTVL | 0.431 µg/mL | 0.124 µg/mL | – | –
ADI-14464 (antibody, V domains shown) VH: QVQLVQSGAEVKKPGASVKVSCEASAYSFSGDYVHWVRQAPGQGLEWMGWIKAVNGGANYAQRFHGRVTMTTDSSRSTVYLELTRLTPDDTAVYFCAKDRAASVHVPAGEFDLWGQGTLVTVSS VL: DIQVTQSPSSLSASVGDRVSITCRASQSISNFLNWYRQRPGKAPELLIYAASTLQGGVPSRFSGSGSGTHFTLTISSLQPEDFATYYCQQSYTIPSITFGQGTRLEIK | > 10 µg/mL | 0.161 µg/mL | – | –
ADI-14467 (antibody, V domains shown) VH: EVQLLESGSEVKKPGTSVKVSCETSGYIFTNYAISWVRQAPGQGLEWLGWISGYNGQTYYAQKVQGRLTLTTDTSTMTAYMDLTSLRSDDTAIYYCVRDVPVISGASTMDYWGQGTLVTVSS VL: DIVMTQSPLSLPVTHGQPASISCRSSQSLVYSDGNTYLSWFQLRPGQSPRRLIYKVSNRDSGVPDRFSGSGSGTDFTLKISRVEAEDVGVYYCMQATQWPRTFGQGTKVEIK | 0.06 µg/mL | 0.065 µg/mL | – | –
ADI-14488 (antibody, V domains shown) VH: EVQLVESGGGLVQPGGSLKLSCTSSGLAFSGSAIHWVRQASGKGLEWVGRIRSKPNSYATEYAASVKGRFTISRDDSQNTAYLQMNSLKAEDTALYYCTLGYCSGDSCSSLRDYWGQGTLVTVSS VL: QSALIQPASVSGSPGQSITISCTGTSSDVGGYNYVSWYQQHPGKAPKLMIYDVSNRPSGVSNRFSGSKSGNTASLTISGLQAEDEADYYCSSYTSSSTLVFGGGTKVTVL | > 10 µg/mL | > 10 µg/mL | – | –
ADI-14503 (antibody, V domains shown, full-length IgG (yeast-expressed); also called Antibody Number 64; Ab# 64) VH: QVQLVQSGGGLVKPGGSLRLSCAASGFSLTNYRMNWVRQAPGKGLEWVSSLKDSSSYIYYADSVKGRFTVSRDDAKNSFFLQMTNVRAEDTAVYYCAREGSDTEYWRLTPPMDVWGNGTTVTVSS VL: QSVLTQPPSVSVAPRQTARITCGEHNIGTKSVHWYQQKPGQAPVLVIYDDSDRPSGIPARFSGSNSGNTATLTISWVEAGDEAVYYCQVWDSGDHPWLFGGGTQLTVL | 0.016 µg/mL | 0.026 µg/mL | – | 26.1 nM
ADI-14441 (antibody, V domains shown) VH: QVQLVQSGAEVKKPGSSVKISCKASGGTFNSQAIHWVRQAPGQDLEWMGNIIPGFGSPNSAQNFQGRVTFIADDSTGAAYMDLSSLKSEDTAVYYCATAGWFGESVHLDSWGQGTLVTVSS VL: not shown | > 10 µg/mL | 3.92 µg/mL | – | –
ADI-14490 (antibody, V domains shown) VH: QVQLVQSGGGVVQPGRSLRLSCAASGFTFSNYGMHWVRQAPGKGLEWVAVIWYDGSNKYYADSVKGRFTISRDNSKNTVYLQMNSLRADDTAVYYCARDAIFGSGPNWFDPWGQGTLVTVSS VL: QSVLTQPPSVSGAPGQRVTISCTGSSSNIGAGYDVHWYQQLPGTAPKLLIYGSSNRPSGVPDRFSGSKSGTSASLAITGLQAEDEADYYCQSYESSLRGWVFGGGTKVTVL | 1.02 µg/mL | 0.113 µg/mL | – | –
ADI-14473 (antibody, V domains shown, full-length IgG (yeast-expressed); also called Antibody Number 35; Ab# 35) VH: QVQLVQSGAEVKKPGEPLRISCKGSGYTFTSYWISWVRQMPGTGLEWMGRIDPSDSYTYSSPSFQGHVTISVDKSISTAYLQWSSLKASDTAIYYCARHKENYDFWDFWGQGTLVTVSS VL: ETTLTQSPDSLAVSLGERATINCKSSQTIFFNSNNKISLAWYQQKPGQPPKLLISWASTRESGVPDRFSGSGSGTDFTLTISSLQPEDVAVYFCQQYYSSAFFGPGTRLEIK | – | – | 0.151 nM | 0.224 nM
ADI-14522 (antibody, V domains shown, full-length IgG (yeast-expressed); also called Antibody Number 82; Ab# 82) VH: EVQLVESGAEVKKPGDSVKVSCRASGYSFTGPFLHWVRQAPGQRLEHMGWINPRSGETKYAQSFLGRVTMTRDTSIRSATLELSSLRSDDTAVYYCARDLYSSGWLDNWGQGTLVTVSS VL: ETTLTQSPATLSVSPGERATLSCRASQGLSSNLAWYQHKPGQAPRLLVYGVATRATGVPARFSGSGSGTEFTLTISSLQSDDFALYYCHQYNDWPYTFGQGTKLEIK | 3.53 µg/mL | 7.29 µg/mL | 1.06 nM | –
ADI-14463 (antibody, V domains shown) VH: QVQLVQSGTEVKKPGASVKVSCKASGYIFDHFAITWVRQAPGQGPEWMGWISAYNGRTEDSGKFPGRLTLTTDPATRTAFLELRGLTPDDTAVYYCARDVPVMGAAFLDYWGQGTLVTVSS VL: EIVLTQSPLSLPVTVGQPASISCRSGQSLEFSDGNTYLTWFHQRPGQSPRRLIYRGSYRDSGVPDRFRGSGSGTTFTLTISRVEAEDVGIYFCMQGTHWPPTFGQGTKVDIK | 0.009 µg/mL | 0.036 µg/mL | – | –
ADI-14474 (antibody, V domains shown) VH: QVQLVQSGPEVKKPGASVTISCQASGYIFNHYSITWVRQAPGQGTEWMGWISAYHGKTEYSGKFHGRVTLTTDTGTRTAFLELRDLTSDDTAIYYCARDVPVMGAAFLDYWGQGTLVTVSS VL: EIVLTQSPLSLPVTLGQPASISCRSGQSLEFSDGNTYLTWFQQRPGQSPRRLIFRGSYRDSGVPERFSGSGSGTSFTLTISRVEAEDVGIYFCMQGTHWPPTFGQGTKLEIK | 0.019 µg/mL | 0.016 µg/mL | – | –
ADI-14486 (antibody, V domains shown, full-length IgG (yeast-expressed); also called Antibody Number 47; Ab# 47) VH: QVQLQESGPGLVKPSETLSLTCTVSGGSINNYFWSWIRQPPGKGLEWLGYIYNSGSTYYNPSLNSRVTISLQKSKNQFSLHLTSMTAADTAVYFCARHPSVIYGTFGANGGPNWFDPWGQGTLVTVSS VL: QSVLTQPASVSGSPGQSITISCTGTSSDVGGYNYVSWYQQHPGKAPKLMIFDVTYRPSGISNRFSGSKSGNTASLTISGLHSEDEADYYCSSYTGSNTVIFGGGTKLTVL | – | – | 0.636 nM | 0.529 nM
ADI-14487 (antibody, V domains shown) VH: QVQLVQSGAEVKKPGASVRVSCKASGYTFSSYYIHWVRQAPGQGPEWLGWINPKSGDTIYSYKFQGRVTLTRETSITTAYMELTSLRSDDTAVYYCARVTWQWLVLGGFDYWGQGTLVTVSS VL: DIVLTQSPLSLPVTPGEPASISCRSSLSLLHSNGDNYLDWYLQKPGQSPQLLIYLGSNRASGVPDRFSGSGSGTDFTLKISRVEAEDVGVYYCMQALHTPLTFGGGTKLEIK | > 10 µg/mL | > 10 µg/mL | – | –
ADI-14478 (antibody, V domains shown) VH: EVQLVESGGGLVKPGGSLRLSCAASGFTFSDYYMSWIRQAPGKGLEWVSYISISSSYTDYADSVKGRFTISRDNAKNSLYLQMNSLRAEDTAVYYCARDQRDQAVAGRWFDPWGQGTLVTVSS VL: QSVVTQPPSVSGAPGQRVTISCTGSSSNIGAGFDVHWYQQVPGTAPKLLIYANTNRPSGVPDRFSGSKSGTSASLAITGLKAEDEADYYCQSYDNSLSGSAVFGGGTKVTVL | 0.163 µg/mL | 0.057 µg/mL | – | –
